Measurements reported in the supplement of paper PMC7877785.
± gives the uncertainty stated by the source.

Test: self-splicing fitness, log relative to wild type (ln ratio); higher = more splicing; Tetrahymena group I intron in knt gene, E. coli kanamycin selection, DiMSum; sequences stand for … in CUCUCU…GGAGGGAAAAGUUAUCAGGCAUGCACCUGGUAGCUAGUCUUUAAACCAAUAGAUUGCAUCGGUUUAAAAGGCAAGACCGUCAAAUUGCGGGAAAGGGGUCAACAGCCGUUCAGUACCAAGUCUCAGGGGAAACUUUGAGAUGGCCUUGCAAAGGGUAUGGUAAUAAGCUGACGGACAUGGUCCUAACCACGCAGCCAAGUCCUAAGUCAACAGAUCUUCUGUUGAUAUGGAUGCAGUUCACAGACUAAAUGUCGGUCGGGGAAGAUGUAUUCUUCUCAUAAGAUAUAGUCGGACCUCUCCUUAAUGGGAGCUAGCGGAUGAAGUGAUGCAACACUGGAGCCGCUGGGAACUAAUUUGUAUGCGAAAGUAUAUUGAUUAGUUUUGGAGUACUCGUGGUCG
In short: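 Fitness was computed with DiMSum as the error-weighted combination of replicate fold changes, kanamycin versus none, each normalised to wild type. The library randomised all eight intron nucleotides of the P1ex region, with the intron placed in the knt kanamycin-resistance gene on pET-22b(+) in E. coli BL21(DE3). Six replicate transformations were grown overnight at 37°C or 30°C on LB agar with or without 25 μg/mL kanamycin, plus 100 μg/mL carbenicillin, 50 μM IPTG and 0.2% rhamnose. Pooled colonies were amplicon-sequenced on an Illumina HiSeq 2500.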

Sequence	self-splicing fitness (ln) (30 °C)	self-splicing fitness (ln) (37 °C)
GCAGAGCAAUAUUACGUACA	-2.86 ± 0.28	-0.806 ± 0.24
GCAGAGCAAUAUUACGUACG	-2.22 ± 0.45	-1.77 ± 0.35
GCAGAGCAAUAUUACGUACU	-3.98 ± 0.3	-2.29 ± 0.32
GCAGAGCAAUAUUACGUCAC	-3.67 ± 0.34	-2.48 ± 0.32
GCAGAGCAAUAUUACGUGAA	-3.15 ± 0.14	-1.59 ± 0.19
GCAGAGCAAUAUUACGUGAU	-2.24 ± 0.16	-1.5 ± 0.18
GCAGAGCAAUAUUACGUUAU	-2.65 ± 0.46	-2.44 ± 0.44
GCAGAGCAAUAUUACGUUGU	-5.06 ± 0.46	-3.02 ± 0.29
GCAGAGCAAUAUUACGUUUG	-3.98 ± 0.27	-2.77 ± 0.25
GCAUAGCAAUAUUACGAAAU	-1.98 ± 0.13	-1.31 ± 0.12
GCAUAGCAAUAUUACGACAG	-3.41 ± 0.26	-2.71 ± 0.33
GCAUAGCAAUAUUACGACGU	-0.0199 ± 0.12	0.152 ± 0.12
GCAUAGCAAUAUUACGACUU	-0.481 ± 0.078	-0.0367 ± 0.089
GCAUAGCAAUAUUACGAGAU	-3.61 ± 0.46	-2.13 ± 0.33
GCAUAGCAAUAUUACGAGGC	-3.26 ± 0.43	-1.27 ± 0.36
GCAUAGCAAUAUUACGCAAC	-3.96 ± 0.33	-2.6 ± 0.37
GCAUAGCAAUAUUACGCACA	-0.886 ± 0.11	0.000212 ± 0.091
GCAUAGCAAUAUUACGCGCA	-1.09 ± 0.12	-0.397 ± 0.14
GCAUAGCAAUAUUACGCGGC	-3.32 ± 0.33	-2.38 ± 0.34
GCAUAGCAAUAUUACGCGGG	-3.23 ± 0.14	-0.875 ± 0.11
GCAUAGCAAUAUUACGCUCG	-0.827 ± 0.11	-0.165 ± 0.13
GCAUAGCAAUAUUACGCUGU	-3.06 ± 0.17	-1.69 ± 0.23
GCAUAGCAAUAUUACGGAUU	-2.81 ± 0.11	-1.29 ± 0.097
GCAUAGCAAUAUUACGGCGU	-0.347 ± 0.091	0.0454 ± 0.089

Sequence	self-splicing fitness (ln) (30 °C)	self-splicing fitness (ln) (37 °C)
GCAUAGCAAUAUUACGGCUG	-1.97 ± 0.16	-1.22 ± 0.18
GCAUAGCAAUAUUACGGUAA	-2.31 ± 0.16	-0.658 ± 0.15
GCAUAGCAAUAUUACGGUAG	-3.52 ± 0.26	-3.01 ± 0.3
GCAUAGCAAUAUUACGGUCU	-1.57 ± 0.098	-0.521 ± 0.092
GCAUAGCAAUAUUACGGUGA	-0.491 ± 0.11	0.678 ± 0.13
GCAUAGCAAUAUUACGUAUG	-2.85 ± 0.17	-2.44 ± 0.26
GCAUAGCAAUAUUACGUCAU	-3.5 ± 0.16	-1.89 ± 0.098
GCCAAGCAAUAUUACGAAUA	-2.96 ± 0.17	-2.72 ± 0.18
GCCAAGCAAUAUUACGACUC	-0.25 ± 0.08	0.136 ± 0.098
GCCAAGCAAUAUUACGACUG	-4.32 ± 0.23	-1.94 ± 0.15
GCCAAGCAAUAUUACGACUU	-2.29 ± 0.15	-1.68 ± 0.16
GCCAAGCAAUAUUACGAUGA	-3.12 ± 0.19	-1.66 ± 0.12
GCCAAGCAAUAUUACGCACC	-0.566 ± 0.22	0.932 ± 0.41
GCCAAGCAAUAUUACGCCAC		-1.25 ± 0.27
GCCAAGCAAUAUUACGCCUA	-0.609 ± 0.16	-0.61 ± 0.18
GCCAAGCAAUAUUACGCGUG	-3.46 ± 0.11	-1.97 ± 0.1
GCCAAGCAAUAUUACGCUCC	-0.474 ± 0.14	0.717 ± 0.17
GCCAAGCAAUAUUACGCUUC	-2.75 ± 0.14	-1.17 ± 0.16
GCCAAGCAAUAUUACGCUUU	-0.998 ± 0.051	-1.18 ± 0.072
GCCAAGCAAUAUUACGGAGU	-0.992 ± 0.066	-1.57 ± 0.09
GCCAAGCAAUAUUACGGCCA	-1.42 ± 0.21	-1.18 ± 0.25
GCCAAGCAAUAUUACGGGCC		-2.13 ± 0.32
GCCAAGCAAUAUUACGGGGG	-4.11 ± 0.19	-2.35 ± 0.14
GCCAAGCAAUAUUACGGGGU	-4.5 ± 0.18	-2.55 ± 0.14

Sequence	self-splicing fitness (ln) (30 °C)	self-splicing fitness (ln) (37 °C)
GCCAAGCAAUAUUACGGUCA	-1.59 ± 0.078	-0.271 ± 0.067
GCCAAGCAAUAUUACGGUUA	-0.632 ± 0.072	-0.00086 ± 0.07
GCCAAGCAAUAUUACGUAGG	-3.32 ± 0.18	-1.78 ± 0.17
GCCAAGCAAUAUUACGUCAG	-3.6 ± 0.23	-2.73 ± 0.28
GCCAAGCAAUAUUACGUGCA	-1.63 ± 0.087	-0.541 ± 0.09
GCCAAGCAAUAUUACGUUGA	-2.53 ± 0.065	-1.39 ± 0.065
GCCCAGCAAUAUUACGACAG	-3.6 ± 0.19	-1.78 ± 0.14
GCCCAGCAAUAUUACGACCC	-0.0226 ± 0.14	-0.0967 ± 0.21
GCCCAGCAAUAUUACGACCU	-1.07 ± 0.12	-0.407 ± 0.15
GCCCAGCAAUAUUACGACGA	-1.31 ± 0.15	-0.475 ± 0.15
GCCCAGCAAUAUUACGAGGU	-3.81 ± 0.2	-3.07 ± 0.22
GCCCAGCAAUAUUACGAGUU	-1.13 ± 0.048	-0.432 ± 0.066
GCCCAGCAAUAUUACGAUAG	-2.76 ± 0.14	-3.33 ± 0.2
GCCCAGCAAUAUUACGCCUU	-1.02 ± 0.081	0.189 ± 0.088
GCCCAGCAAUAUUACGCGAG	-2.72 ± 0.11	-1.73 ± 0.13
GCCCAGCAAUAUUACGCGGG	-3.71 ± 0.2	-2.31 ± 0.22
GCCCAGCAAUAUUACGCUCU	0.00415 ± 0.05	0.138 ± 0.066
GCCCAGCAAUAUUACGCUUC	-1.18 ± 0.089	-1.33 ± 0.091
GCCCAGCAAUAUUACGGAAU	-0.828 ± 0.056	0.223 ± 0.078
GCCCAGCAAUAUUACGGGUA	-1.34 ± 0.061	-0.511 ± 0.06
GCCCAGCAAUAUUACGGGUU	-3.01 ± 0.12	-3.4 ± 0.19
GCCCAGCAAUAUUACGGUCG	-1.61 ± 0.083	-1.31 ± 0.096
GCCCAGCAAUAUUACGGUCU	-1.97 ± 0.063	-0.732 ± 0.081
GCCCAGCAAUAUUACGUAGU	-0.118 ± 0.051	-0.0932 ± 0.066

Sequence	self-splicing fitness (ln) (30 °C)	self-splicing fitness (ln) (37 °C)
GCCCAGCAAUAUUACGUCUG	-3.86 ± 0.14	-2.73 ± 0.17
GCCCAGCAAUAUUACGUGCU	-3.14 ± 0.16	-2.88 ± 0.21
GCCCAGCAAUAUUACGUUCC	-1.28 ± 0.096	-0.603 ± 0.14
GCCCAGCAAUAUUACGUUGC	-1.11 ± 0.063	-0.368 ± 0.094
GCCGAGCAAUAUUACGAAUG	-3.59 ± 0.3	-2.75 ± 0.27
GCCGAGCAAUAUUACGACUU	-1.04 ± 0.31	-0.625 ± 0.34
GCCGAGCAAUAUUACGAGGA	-1.32 ± 0.11	-0.747 ± 0.1
GCCGAGCAAUAUUACGAUCA	-1.91 ± 0.12	-1.69 ± 0.15
GCCGAGCAAUAUUACGCAAA		-1.05 ± 0.34
GCCGAGCAAUAUUACGCAAG	-2.91 ± 0.44	-1.25 ± 0.36
GCCGAGCAAUAUUACGCCUG	-3.59 ± 0.23	-2.03 ± 0.22
GCCGAGCAAUAUUACGCGGA	-1.04 ± 0.17	0.224 ± 0.14
GCCGAGCAAUAUUACGCGUG	-2.05 ± 0.088	-1.32 ± 0.091
GCCGAGCAAUAUUACGCUCA	-0.335 ± 0.17	-0.829 ± 0.21
GCCGAGCAAUAUUACGGAGC	-2.69 ± 0.44	
GCCGAGCAAUAUUACGGCCC	-2.4 ± 0.19	-1.93 ± 0.24
GCCGAGCAAUAUUACGGCGC	-1.48 ± 0.23	-0.221 ± 0.23
GCCGAGCAAUAUUACGGGAA	-1.01 ± 0.073	-0.813 ± 0.088
GCCGAGCAAUAUUACGGGCA	-2.24 ± 0.25	-0.776 ± 0.17
GCCGAGCAAUAUUACGGGCU	-3.27 ± 0.23	-2.43 ± 0.27
GCCGAGCAAUAUUACGGUAA	-0.184 ± 0.11	-0.414 ± 0.091
GCCGAGCAAUAUUACGGUGU	-2.57 ± 0.11	-0.986 ± 0.11
GCCGAGCAAUAUUACGUAUU	-3.72 ± 0.21	-1.9 ± 0.15
GCCGAGCAAUAUUACGUCCG	-3.69 ± 0.28	-2.87 ± 0.29
